# Test: yeast display, Sf9 membrane polyspecificity reagent, FACS + sequencing; frameworks hold sequencing errors
# How it was run: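 A nanobody's polyreactivity label depends on the gate it was sorted from. Yeast display cells were stained with 10% biotinylated, detergent-solubilized Sf9 membrane reagent for 1 hour at 4 °C, enriched on streptavidin microbeads and sorted by FACS. The low and high (top ~1%) gates were set on anti-HA fluorescence for expression and streptavidin fluorescence for reagent binding.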
row,Sequence,polyreactivity (PSR sort gate)
1,QVQLVESGGGLVQAGGSLRLSCAASGRIFVYYAMGWYRQAPGKERELVAAITYSVDSTYYADSVKGRFTISRDNAKNTVYLQKNSLKPEDTAVYYCATDVDWAYGYQYEDWGQGTQVPVSS,low polyreactivity
2,QVQLVESGGGLVQAGGSLRLSCAASGRIFVYYAMGWYRQAPGKERELVASISYSGASTYYADSVKGRFTISRDNAKNTVYLQMNSLKPEDTAVYYCNTDGDDFFHVIYDYWGQGTQVTVSS,low polyreactivity
3,QVQLVESGGGLVQAGGSLRLSCAASGRIFVYYTMGWYRQAPGKERELVAAISTGGRTHYADSVKGRFTISRDNAKNTVYLQMNSLKPEDTAVYYCNAASWNGGLFQTKYGYWGQGTQVTVSS,high polyreactivity
4,QVQLVESGGGLVQAGGSLRLSCAASGRIFWDNALGWYRKAPGTERELVAAISDSVVITYYADSVKGRFTISRDNAKNTVYLQMNSLKPEDSAVYYCAAGGWPYSGGWFFQPNYDYWGQGTQVTVSS,low polyreactivity
5,QVQLVESGGGLVQAGGSLRLSCAASGRIFWDNAMGWYRQAPVKERELVAAISGGASTYADSVKGRFTISRDNAKNTVYLQMNSLKAEDTSVYYCYAFQSPVEEEYYWGQGTQVTVSS,low polyreactivity
6,QVQLVESGGGLVQAGGSLRLSCAASGRIFWGNAMGWYRQAPGKERELVAAINWSGGSTYYADSVKGRFTISRDNAKNTVYLQMNTLKPEDTAVYYCAADANGIVRYYYWGQGTQVTVSS,low polyreactivity
7,QVQLVESGGGLVQAGGSLRLSCAASGRIFWGNAMGWYRQAPGKERELVAAITRRGGTTFYADSVKGRFTISRDNAKNTVYLQMNSLKPEDTAVYYCAARRYGQYDGYDSWGQGTQVTVSS,high polyreactivity
8,QVQLVESGGGLVQAGGSLRLSCAASGRIFWGSTMVWYRQAPGKEMELVAAITYRGATTYYADSVKGRFTISRDNAKNTVYLQMNSLKPEDTAVYYCAAEYYYTYGYWGQGTQVTVSS,high polyreactivity
9,QVQLVESGGGLVQAGGSLRLSCAASGRIFWHNAMGWYRQAPGKERELVAAISSRGGSTSYADSVKGRFTISRDNAKNTVYLQMNSLKPEDTAVYYCNARNQGYYRVWGYRGDYWGQGTQVTVSS,low polyreactivity
10,QVQLVESGGGLVQAGGSLRLSCAASGRIFWINAMGWYRQAPGKERELVAAITTDGGTTYYADSVKGRFTISRDNAKNTVYLQMNSLKPEDTAVYYCAADAAGQYWWQTYDYWGQGTQVTVSS,high polyreactivity
11,QVQLVESGGGLVQAGGSLRLSCAASGRIFWINAMGWYRQATGKERELVATISSGSTSYADSVKGRFTISRDNAKNTVYLQMNSLKPEDTAVYYCAVTLRYTRSGAYDYWGQGTQVTVSS,low polyreactivity
12,QVQLVESGGGLVQAGGSLRLSCAASGRIFWPNAMGWYLQAPGKESEFVAAIRWSSDRTYYADSVKGRFTISRDNAKNTVYLQMNSLKPEYTAVYYCNAVRYVISKYDYWGHGTQVTVSS,high polyreactivity
13,QVQLVESGGGLVQAGGSLRLSCAASGRIFWPYAMGWSRQAPGKERELVAAITSGGSTYYADSVKGRFTISRDNAKNTVYLQMNSLKPEDTAVYYCAKRSSGVSVPVAYGGIKRYNSWGQGTQVTVSS,low polyreactivity
14,QVQLVESGGGLVQAGGSLRLSCAASGRIFWRNAMGWSRQAPGKERELVAAISSGGSTYYADSVKGRFTISRDNAKNTVYLQMNSLKPEDTAVYYCAARSSWRGVRYDHFERVYWGQGTQVTVSS,high polyreactivity
15,QVQLVESGGGLVQAGGSLRLSCAASGRIFWRYAMGWYRQAPGKERELVAAITGRTGSTNYADSVKGRFTISRDNAKNTVYLQMNSLKPEDTAVYYCAAAHHRWTGLYPSGYEFDYWGQGTQVTVSS,low polyreactivity
16,QVQLVESGGGLVQAGGSLRLSCAASGRIFWSNAMGWYRQAPGKERELVAAIRWSGGSTYYADSVKGRCTISRDNAKTTVYLQMNSLKPEDTAVYYCAASPYWSDWTKVDSWGQGTQVTVSS,low polyreactivity
17,QVQLVESGGGLVQAGGSLRLSCAASGRIFWSYDMGWYRQAPGKERELVASITSDGSTNYADSVKGRFTISRDNAKNTVYLQMNSLKPEDTAVYYCAARPYQYDPFAQGDGGKYDYWGQGTQVTVSS,low polyreactivity
18,QVQLVESGGGLVQAGGSLRLSCAASGRIFWTNDMGWYSKAPGKERELVAGITWRGGSTYYADSVKGRFTISRDNAKNTVYLQMNSLKPEDTAVYYCATRYRRVYTWYDYWGQGTQVTVSS,high polyreactivity
19,QVQLVESGGGLVQAGGSLRLSCAASGRIFWTYAMGWYRQAPGKERELVAAITSGGSTYYADSVKGRVTISRDNAKNTVYLLMNSLKPEDTAVYYCAATSYYYNFMEHDYWGQGTQVTVSS,high polyreactivity
20,QVQLVESGGGLVQAGGSLRLSCAASGRIFWWYAMGWYRQAPGKERELVASISSRGTSTYYADSVKGRFTISRDNAKHTVYLQMNSLKPEDTAFYYCAARRPGRTSQDRYKYDYWGQGTQVTVSS,high polyreactivity
21,QVQLVESGGGLVQAGGSLRLSCAASGRIFWYNALGWYRQAPGKEREVVAAISWRGSRTYYADSVKGRFTISRDNAKNTVYLQMNSLKPEETAVYYCAAVIKWTKDDYWGQGTQVTVSS,high polyreactivity
22,QVQLVESGGGLVQAGGSLRLSCAASGRIFWYYAIGWYRQAPGKEREIVAAISRSGGTTYYADSVKGRFTISRDNAKNTVYLQMNSLKPEDTAVYYCAAVYHAYTGYEAWYEYDYWGQGTQVTVSS,high polyreactivity

row,Sequence,polyreactivity (PSR sort gate)
1,QVQLVESGGGLVQAGGSLRLSCAASGRIFWYYAMGWYRQAAGKERELVAAISSGTTKYADSVKGRFTISRDNAKNTVYLQMNSLKPEDTAVYYCNAAAYYPTNYGGYLFEYWGQGTQVTVSS,low polyreactivity
2,QVQLVESGGGLVQAGGSLRLSCAASGRIFWYYAMGWYRQAPGKERELVADISTGGSTNYADSVKGRFTISRDNAKNTVYLQMNSLKPEDTAVYYCATTVPVILYVTPSTYAVVGYEYWGQGTQVTVSS,low polyreactivity
3,QVQLVESGGGLVQAGGSLRLSCAASGRIFWYYAMGWYRQAPGKERELVATISYGGGNTYYADSVKGRFTISRDNAKNTVYLQMNSLKPEDTAVYDCARVPYAYLPYKPFQQYSYDYWGQGTQVTVSS,high polyreactivity
4,QVQLVESGGGLVQAGGSLRLSCAASGRIFWYYNMGRYRQAPGKERELVASINSDTGTYYADSVKGRFTISRDNAKNTVYLQMNSLKPEDTAVYYCTRDSESDANTFTTSGIDEPYDYWGQGTQVTVSS,low polyreactivity
5,QVQLVESGGGLVQAGGSLRLSCAASGRIFYANAMGWYRQAPGKERELVAAISSGGSTYYADSVKGRFTISRDNANNTVYLQMNSLKPEDTAVYYFAASTVGQTFSYYVDTYDYWGQGTQVTVSS,low polyreactivity
6,QVQLVESGGGLVQAGGSLRLSCAASGRIFYANAMGWYRQAPGKERELVAGISSGGITNYADSVKGRFTISRDNAKNTVYLQMNSLKPEDTAVYYCAVESWNRWRNRNDYWGQGSQVTVSS,low polyreactivity
7,QVQLVESGGGLVQAGGSLRLSCAASGRIFYAYAMGLYRQAPGKERELVAAITWSGGSTYYADSVKGRFTISRDNAKNTVYLQMNSLKQEDTAVYYCAADLRVKYVHTYSYVWYRYDYWGQGTQVTVSS,high polyreactivity
8,QVQLVESGGGLVQAGGSLRLSCAASGRIFYAYAMGWYRQAPGKERVFVAAISKRGGSTYYADSVKGRFTISRDNAKNTVYLQMNSRKPEDTAVYYCAADHEAIVRYDYWGQGTQVTVSS,low polyreactivity
9,QVQLVESGGGLVQAGGSLRLSCAASGRIFYDNAMGWYRQAPGKERELVAAISYSGDSTYYADSVKGRFTISRDNAKNTVYLQMNSLKPEDTAVYYCAAVYISQGAFAYDYWGQGTQVTVSS,low polyreactivity
10,QVQLVESGGGLVQAGGSLRLSCAASGRIFYDYAMGWYRQAPGKERELVAAISGSGGSTYYADSVKGRFTISRDKAKNTVYLQMNSLQPEDTEVYYCNRYTTRYYPGGDYWGHGTQVTVSS,high polyreactivity
11,QVQLVESGGGLVQAGGSLRLSCAASGRIFYEYAMGWYRQAPGKERELVAISTSGGNTYYADSVKGRFTISRDNAKNTVYLQMNSLKPEDTAVYYCAARLQYYPYYYWGQGTQVTVSS,high polyreactivity
12,QVQLVESGGGLVQAGGSLRLSCAASGRIFYEYASGWYRQAPGKERELVAISTSGGNTYYADSVKGRFTISRDNAKNTVYLQMNSLKPDDTAVYYCAARLQYYPYYYWGQGTQVTVSS,high polyreactivity
13,QVQLVESGGGLVQAGGSLRLSCAASGRIFYFNAMGWYRQAPGKERELVAAISGSGGDTYYADSVKGRFTISRDNAKNTVYLQMNSLNPEDTAVYYCAAEVYTWGQGTQVTVSS,low polyreactivity
14,QVQLVESGGGLVQAGGSLRLSCAASGRIFYFYAMGWYRQAPGKEREFVATISYTGGSRYYSDSVKGRFTISRDIAKNTVYLQMNSLKPEDTAVYYCAVRGWYPGFRYDYWGQGTQVTVSS,low polyreactivity
15,QVQLVESGGGLVQAGGSLRLSCAASGRIFYFYAMGWYRQAPGKERELVAGITRSGDSTYADSVKGRFTISRDNAKNTVYLQMNSLKPEDTAVYYCAADFPWSTKSCHPDSGDSWGQGTQVTVSS,low polyreactivity
16,QVQLVESGGGLVQAGGSLRLSCAASGRIFYFYAMGWYRQAPGKETELVAAISTSGGSTYYADSVKGRFTISRDNEKNTVYLQMNSLKPEYTAVYYCAARFRYYGSEYDYWGQGTQVTVSS,low polyreactivity
17,QVQLVESGGGLVQAGGSLRLSCAASGRIFYGNAMGWYRQAPGKERELVAAISSGGGSTYYADSVKGRFTISRDNAKNTVYLQMNSLKPEDTAVYYCAADPVHRFPGTGGYWGQGTQVTVSS,low polyreactivity
18,QVQLVESGGGLVQAGGSLRLSCAASGRIFYGNAMGWYRQAPGKERELVAAISSGTSTNYADSVKGLFTISRDNAKNTVYLQMHCLKPVDTAVYYCAAGSYSLYLYSLYFDFDYWGQGTQVTVSS,low polyreactivity
19,QVQLVESGGGLVQAGGSLRLSCAASGRIFYGNAMGWYRQAPGKERELVAAISSGTTTNYADSVKGRFTISRDNAKNTVYLQMNSLKPEDTAVYYCAAGSYSRYLYSLYFDFDYWGQGTQVTVSS,low polyreactivity
20,QVQLVESGGGLVQAGGSLRLSCAASGRIFYGNAMGWYRQAPGKERELVASITSSGSTKYADSVKGRFTISRDNAKNTVYLQMNSLKPEDTAVYYCAASYTKRYDTYAGYDYWGQGTQVTVSS,low polyreactivity
21,QVQLVESGGGLVQAGGSLRLSCAASGRIFYGNAMGWYRQAPGKESELVASITSSGSTKYADSVKGRFTISRDNAKNTVYLQMYSLKPVDTAVYYCAASSTKRYDTYAGYDYWGQGTQVTVSS,low polyreactivity

# — the nanobody polyreactivity screen of Harvey et al. (2022)
